Patent US20260022175A1 (Chugai, published 2026)
Residue numbers refer to the chain shown, from its start.

Columns and labels:
[1] = target: T1, human FcγRIa extracellular domain (human, UniProt P12314 16-292); test: SPR Biacore 8K+; KD of G1d divided by KD of this antibody;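 further: antibodies captured on an anti-Fab-kappa streptavidin chip, soluble FcγR ectodomains flowed over, KD by steady-state fit for FcγRIIb and Langmuir kinetic model for the other receptors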
T1 construct: extracellular domain; also called hFcγR Ia; hFcγRIa

[2] = target: T2, human FcγRIIIa V extracellular domain (human, UniProt P08637 17-208); test: as above
T2 construct: extracellular domain; also called hFcγR IIIa V

[3] = target: T3, human FcγRIIIa F extracellular domain (human, UniProt P08637 17-208); test: as above
T3 construct: extracellular domain; also called hFcγR IIIa F

[4] = target: T4, human FcγRIIa R extracellular domain (human, UniProt P12318 34-217); test: as above
T4 construct: extracellular domain; also called hFcγR IIa R
T4 sequence (looked up): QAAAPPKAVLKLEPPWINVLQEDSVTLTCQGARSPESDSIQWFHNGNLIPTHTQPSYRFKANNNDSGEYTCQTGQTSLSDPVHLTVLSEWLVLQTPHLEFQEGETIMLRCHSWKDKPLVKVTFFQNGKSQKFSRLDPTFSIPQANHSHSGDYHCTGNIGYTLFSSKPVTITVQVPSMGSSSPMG

[5] = target: T5, human FcγRIIa H extracellular domain (human, UniProt P12318 34-217); test: as above
T5 construct: extracellular domain; also called hFcγR IIa H
T5 sequence (looked up): T4 sequence (looked up) with R134H

[6] = target: T6, human FcγRIIb extracellular domain (human, UniProt P31994 43-217); test: as above
T6 construct: extracellular domain; also called hFcγR IIb
T6 sequence (looked up): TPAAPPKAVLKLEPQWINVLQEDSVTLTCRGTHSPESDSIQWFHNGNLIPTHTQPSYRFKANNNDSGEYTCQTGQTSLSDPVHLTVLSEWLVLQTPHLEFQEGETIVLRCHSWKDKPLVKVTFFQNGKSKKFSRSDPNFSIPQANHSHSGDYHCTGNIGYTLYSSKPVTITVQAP

[7] = target: T7, hFcγRIIaH on hFcγRIIaH-expressing Jurkat cells (human, UniProt P12318 34-317); test: cell-based or functional assay
T7 sequence (looked up): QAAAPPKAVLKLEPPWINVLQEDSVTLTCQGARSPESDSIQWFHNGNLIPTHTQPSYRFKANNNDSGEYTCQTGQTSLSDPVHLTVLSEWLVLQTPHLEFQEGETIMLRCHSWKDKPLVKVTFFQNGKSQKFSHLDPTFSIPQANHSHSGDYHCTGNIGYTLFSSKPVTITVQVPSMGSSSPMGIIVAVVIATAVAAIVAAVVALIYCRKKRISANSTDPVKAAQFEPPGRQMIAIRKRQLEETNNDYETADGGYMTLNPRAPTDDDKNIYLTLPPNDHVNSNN

[8] = target: T2, human FcγRIIIa V extracellular domain; test: SPR Biacore 8K+; KD for FcγRIIb divided by KD for this FcγR;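 further: antibodies captured on an anti-human Fab kappa SA chip with soluble human FcγR ectodomains flowed over, FcγRIIb KD from steady-state fit, other FcγR KD from Langmuir model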
[9] = target: T3, human FcγRIIIa F extracellular domain; test: as above
[10] = target: T4, human FcγRIIa R extracellular domain; test: as above
[11] = target: T5, human FcγRIIa H extracellular domain; test: as above
[12] = target: T6, human FcγRIIb extracellular domain; test: SPR Biacore 8K+, antibody captured, FcγR as analyte, steady state affinity model
Description: The interaction between the produced antibodies and human FcγRs was analyzed using Biacore 8K+ by the method below. For the running buffer, 50 mM Na-Phosphate, 150 mM NaCl, and 0.05% Tween20 (pH 7.4) was used, and measurement was performed at 25° C. The sensor chip used was a Series S SA chip (GE Healthcare) onto which CaptureSelect Human Fab-kappa Kinetics Biotin Conjugate (Thermo Fisher Scientific) was immobilized. An antibody of interest was captured onto this chip, and each FcγR diluted with the running buffer was allowed to interact with it. The chip was regenerated using 10 mM Glycine-HCl (pH 1.5), and repeatedly used to capture antibodies and perform measurement. The dissociation constants KD (mol/L) of each antibody for FcγRs were calculated using Biacore Insight Evaluation Software, with a steady state affinity model for the dissociation constant for FcγRIIb and a 1:1 Langmuir binding model for the dissociation constants for the other FcγRs (Table 48).

[13] = target: T1, human FcγRIa extracellular domain; test: SPR Biacore 8K+, antibody captured, FcγR as analyte, 1:1 Langmuir model;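 further: antibodies captured on a streptavidin chip through a biotinylated anti-human Fab kappa reagent, with FcγR extracellular domains injected in pH 7.4 phosphate buffer at 25 °C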
[14] = target: T2, human FcγRIIIa V extracellular domain; test: as above
[15] = target: T3, human FcγRIIIa F extracellular domain; test: as above
[16] = target: T4, human FcγRIIa R extracellular domain; test: as above
[17] = target: T5, human FcγRIIa H extracellular domain; test: as above
[18] = target: hFcγRIIIaV on hFcγRIIIaV-expressing Jurkat cells (human, UniProt P08637 17-254); test: cell-based or functional assay
hFcγRIIIaV on hFcγRIIIaV-expressing Jurkat cells, sequence (P08637 17-254, form in doubt): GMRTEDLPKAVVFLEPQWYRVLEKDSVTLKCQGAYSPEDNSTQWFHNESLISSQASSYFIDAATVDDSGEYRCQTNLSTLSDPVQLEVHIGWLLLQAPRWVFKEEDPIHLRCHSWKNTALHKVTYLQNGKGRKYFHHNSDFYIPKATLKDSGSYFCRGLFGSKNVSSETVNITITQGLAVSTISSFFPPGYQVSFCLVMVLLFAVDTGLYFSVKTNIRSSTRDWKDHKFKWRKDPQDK

T1 sequence (P12314 16-292): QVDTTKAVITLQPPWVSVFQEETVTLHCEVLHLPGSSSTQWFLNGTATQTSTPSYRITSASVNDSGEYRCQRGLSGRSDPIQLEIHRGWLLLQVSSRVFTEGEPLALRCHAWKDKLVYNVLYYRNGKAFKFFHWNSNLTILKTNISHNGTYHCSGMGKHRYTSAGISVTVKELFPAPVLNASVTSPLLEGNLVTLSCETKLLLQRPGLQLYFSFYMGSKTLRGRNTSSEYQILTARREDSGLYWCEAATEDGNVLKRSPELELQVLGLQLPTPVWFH
T3 sequence (P08637 17-208): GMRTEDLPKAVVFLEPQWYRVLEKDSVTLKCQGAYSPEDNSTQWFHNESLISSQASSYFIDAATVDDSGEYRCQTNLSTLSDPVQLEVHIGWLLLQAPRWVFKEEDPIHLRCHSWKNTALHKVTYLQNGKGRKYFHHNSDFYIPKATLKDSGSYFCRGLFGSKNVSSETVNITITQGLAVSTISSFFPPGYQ
T2 sequence (P08637 17-208 F176V limits assumed): as the sequence (P08637 17-208) above, with F160V counted along it

B1: H240-Kn120/L73-k0//H240-Hl068/L73-k0 (antibody, human IgG1, kappa)
heavy 1: QDQLVQSGAEVKKPGASVKVSCKASGFNIKDTYIQWVRQAPGQGLEWMGRIDPLRKQTKYREKFEGRVTITADTSTNTAYMELSSLRSEDTAVYYCVRSGREFDYWGQGTLVTVSSASTKGPSVFPLAPSSKSTSGGTAALGCLVKDYFPEPVTVSWNSGALTSGVHTFPAVLQSSGLYSLSSVVTVPSSSLGTQTYICNVNHKPSNTKVDKKVEPKSCDKTHTCPPCPAPEYYWGPMVFLFPPKPKDTLMISRTPEVTCVVVDVSDEDPEVKFNWYVDGVEVHNAKTKPREEQYNATYRVVSVLTVLHQDWLNGKEYKCKVSNKDLPAPIEKTISKAKGQPREPQVCTLPPSRDELTKNQVSLWCLVKGFYPSDIAVEWESNGQPENNYKTTPPVLDSDGSFFLYSKLTVDKSRWQQGNVFSCSVMHEALHNHYTQKSLSLSP
heavy 2: QDQLVQSGAEVKKPGASVKVSCKASGFNIKDTYIQWVRQAPGQGLEWMGRIDPLRKQTKYREKFEGRVTITADTSTNTAYMELSSLRSEDTAVYYCVRSGREFDYWGQGTLVTVSSASTKGPSVFPLAPSSKSTSGGTAALGCLVKDYFPEPVTVSWNSGALTSGVHTFPAVLQSSGLYSLSSVVTVPSSSLGTQTYICNVNHKPSNTKVDKKVEPKSCDKTHTCPPCPAPELLGGPSVFLFPPKPKDTLMISRTPEVTCVVVDVSHEEPEVKFNWYVDGVEVHNAKTKPREEQYNSTYRVVSVLTVLHQDWLNGKEYKCKVSNDALPKPIEETISKAKGQPREPQVYTLPPSRCELTKNQVSLSCAVKGFYPSDIAVEWESNGQPENNYKTTPPVLDSDGSFFLVSKLTVDKSRWQQGNVFSCSVMHEALHNHYTQKSLSLSP
light: DIQMTQSPSSLSASVGDRVTITCRASQDIHKYIAWYQQKPGQAPRLLIQYTSTLQPGVPSRFSGSGSGTDYTFTISSLQPEDIATYYCLQYEQLRTFGGGTKVEIKRTVAAPSVFIFPPSDEQLKSGTASVVCLLNNFYPREAKVQWKVDNALQSGNSQESVTEQDSKDSTYSLSSTLTLSKADYEKHKVYACEVTHQGLSSPVTKSFNRGEC
notes: also called EGL-ART2; ART2
- Relative value to KD between G1d and hFcgRs [1]: 3.4
- Relative value to KD between G1d and hFcgRs [2]: 215
- Relative value to KD between G1d and hFcgRs [3]: 460
- Relative value to KD between G1d and hFcgRs [4]: 49
- Relative value to KD between G1d and hFcgRs [5]: 14.7
- Relative value to KD between G1d and hFcgRs [6]: 22.8
- EC50 value (hFcγRIIaH ADCP Reporter Bioassay, Hepa1-6/hEREG target cells) [7]: 0.0218 mg/L
- A/I ratio (KD for FcγRIIb divided by KD for each FcγR) [8]: 264
- A/I ratio (KD for FcγRIIb divided by KD for each FcγR) [9]: 68.4
- A/I ratio (KD for FcγRIIb divided by KD for each FcγR) [10]: 13
- A/I ratio (KD for FcγRIIb divided by KD for each FcγR) [11]: 5.8
- Kd [12]: 440 nM
- Kd [13]: 0.0264 nM
- Kd [14]: 1.67 nM
- Kd [15]: 6.43 nM
- Kd [16]: 33.8 nM
- Kd [17]: 76.4 nM
- EC50 value (hFcγRIIIaV ADCC Reporter Bioassay, Hepa1-6/hEREG target cells) [18]: 0.00135 mg/L

B2: H240-Kn125/L73-k0//H240-Hl076/L73-k0 (antibody, human IgG1, kappa)
heavy 1: B1 heavy 1 with Y234Q, D269E, D326A
heavy 2: B1 heavy 2 with K329M
light: B1 light
notes: Anti-human Epiregulin heterodimerized IgG1 Fc variant; also called EGL-ART1; ART1
- Relative value to KD between G1d and hFcgRs [1]: 3
- Relative value to KD between G1d and hFcgRs [2]: 323
- Relative value to KD between G1d and hFcgRs [3]: 1170
- Relative value to KD between G1d and hFcgRs [4]: 1.6
- Relative value to KD between G1d and hFcgRs [5]: 4.3
- Relative value to KD between G1d and hFcgRs [6]: 0.8
- EC50 value (hFcγRIIaH ADCP Reporter Bioassay, Hepa1-6/hEREG target cells) [7]: 0.0353 mg/L
- A/I ratio (KD for FcγRIIb divided by KD for each FcγR) [8]: 11300
- A/I ratio (KD for FcγRIIb divided by KD for each FcγR) [9]: 4950
- A/I ratio (KD for FcγRIIb divided by KD for each FcγR) [10]: 12.4
- A/I ratio (KD for FcγRIIb divided by KD for each FcγR) [11]: 47.4
- Kd [12]: 12500 nM
- Kd [13]: 0.0302 nM
- Kd [14]: 1.11 nM
- Kd [15]: 2.53 nM
- Kd [16]: 1010 nM
- Kd [17]: 264 nM
- EC50 value (hFcγRIIIaV ADCC Reporter Bioassay, Hepa1-6/hEREG target cells) [18]: 0.000716 mg/L

B3: H240-Kn462/L73-k0//H240-Hl445/L73-k0 (antibody, human IgG1, kappa)
heavy 1: B1 heavy 1 with Y233F, Y234Q, T249V, D269E, T306P, K325D, D326A
heavy 2: B1 heavy 2 with G235A, T249V, S297A, T306P, I331D
light: B1 light
notes: also called EGL-ART6; ART6
- Relative value to KD between G1d and hFcgRs [1]: 1.2
- Relative value to KD between G1d and hFcgRs [2]: 322
- Relative value to KD between G1d and hFcgRs [3]: 987
- Relative value to KD between G1d and hFcgRs [4]: 24.1
- Relative value to KD between G1d and hFcgRs [5]: 118
- Relative value to KD between G1d and hFcgRs [6]: 3.4
- EC50 value (hFcγRIIaH ADCP Reporter Bioassay, Hepa1-6/hEREG target cells) [7]: 0.0192 mg/L
- A/I ratio (KD for FcγRIIb divided by KD for each FcγR) [8]: 2630
- A/I ratio (KD for FcγRIIb divided by KD for each FcγR) [9]: 976
- A/I ratio (KD for FcγRIIb divided by KD for each FcγR) [10]: 42.4
- A/I ratio (KD for FcγRIIb divided by KD for each FcγR) [11]: 307
- Kd [12]: 2920 nM
- Kd [13]: 0.0737 nM
- Kd [14]: 1.11 nM
- Kd [15]: 3 nM
- Kd [16]: 68.9 nM
- Kd [17]: 9.52 nM
- EC50 value (hFcγRIIIaV ADCC Reporter Bioassay, Hepa1-6/hEREG target cells) [18]: 0.0015 mg/L

B4: H240-Kn498/L73-k0//H240-Hl518/L73-k0 (antibody, human IgG1, kappa)
heavy 1: B1 heavy 1 with Y233F, Y234Q, T249V, D269E, T306P, D326A, A329M
heavy 2: B1 heavy 2 with T249V, S297A, T306P, K329M
light: B1 light
notes: also called EGL-ART12; ART12
- Relative value to KD between G1d and hFcgRs [1]: 3.4
- Relative value to KD between G1d and hFcgRs [2]: 158
- Relative value to KD between G1d and hFcgRs [3]: 578
- Relative value to KD between G1d and hFcgRs [4]: 1
- Relative value to KD between G1d and hFcgRs [5]: 3.1
- Relative value to KD between G1d and hFcgRs [6]: 0.5
- EC50 value (hFcγRIIaH ADCP Reporter Bioassay, Hepa1-6/hEREG target cells) [7]: 0.085 mg/L
- A/I ratio (KD for FcγRIIb divided by KD for each FcγR) [8]: 9720
- A/I ratio (KD for FcγRIIb divided by KD for each FcγR) [9]: 4310
- A/I ratio (KD for FcγRIIb divided by KD for each FcγR) [10]: 12.8
- A/I ratio (KD for FcγRIIb divided by KD for each FcγR) [11]: 60.3
- Kd [12]: 22100 nM
- Kd [13]: 0.0261 nM
- Kd [14]: 2.27 nM
- Kd [15]: 5.12 nM
- Kd [16]: 1720 nM
- Kd [17]: 366 nM
- EC50 value (hFcγRIIIaV ADCC Reporter Bioassay, Hepa1-6/hEREG target cells) [18]: 0.000304 mg/L

B5: H240-Kn456/L73-k0//H240-Hl446/L73-k0 (antibody, human IgG1, kappa)
heavy 1: B1 heavy 1 with Y233F, Y234Q, T249V, D269E, T306P, D326A, A329M, I331E
heavy 2: B1 heavy 2 with G235A, T249V, S297A, T306P, K329M, I331E
light: B1 light
notes: also called EGL-ART4; ART4
- Relative value to KD between G1d and hFcgRs [1]: 2.9
- Relative value to KD between G1d and hFcgRs [2]: 462
- Relative value to KD between G1d and hFcgRs [3]: 2520
- Relative value to KD between G1d and hFcgRs [4]: 3.2
- Relative value to KD between G1d and hFcgRs [5]: 6.3
- Relative value to KD between G1d and hFcgRs [6]: 0.9
- EC50 value (hFcγRIIaH ADCP Reporter Bioassay, Hepa1-6/hEREG target cells) [7]: 0.0432 mg/L
- A/I ratio (KD for FcγRIIb divided by KD for each FcγR) [8]: 15000
- A/I ratio (KD for FcγRIIb divided by KD for each FcγR) [9]: 9940
- A/I ratio (KD for FcγRIIb divided by KD for each FcγR) [10]: 22.5
- A/I ratio (KD for FcγRIIb divided by KD for each FcγR) [11]: 65.2
- Kd [12]: 11700 nM
- Kd [13]: 0.0305 nM
- Kd [14]: 0.775 nM
- Kd [15]: 1.17 nM
- Kd [16]: 518 nM
- Kd [17]: 179 nM
- EC50 value (hFcγRIIIaV ADCC Reporter Bioassay, Hepa1-6/hEREG target cells) [18]: 0.000789 mg/L
